Values joined by “and” are separate entries in the source; they are usually repeats but may differ in a detail not shown here. Equal values may be shown once.
target: recombinant soluble empty (peptide free) HLA-DR1 (human); assay: fluorescence polarisation

Substance | loss of bound peptide during the first 24 hr
FAM labeled P7 L→C HA peptide | 18% and 3%

target: recombinant soluble empty (peptide free) HLA-DR1 (human); assay: native gel or EMSA

Substance | t1/2 [min]
HA 306-318 P2,3 VK→SD peptide, fluorescein-labeled | 4.6
HA 306-318 P3,10 KA→DG peptide, fluorescein-labeled | 7.92
HA 306-318 P2,7,10 VLA→SPG peptide, fluorescein-labeled | 9.9
HA 306-318 P3 K→D peptide, fluorescein-labeled | 43.8
HA 306-318 P2,7 VL→SP peptide, fluorescein-labeled | 40.4
HA 306-318 P7,10 LA→PG peptide, fluorescein-labeled | 92.9
HA 306-318 P10 A→G peptide, fluorescein-labeled | 69
HA 306-318 P3,7 KL→DP peptide, fluorescein-labeled | 15.9
HA 306-318 P7 L→P peptide, fluorescein-labeled | 268
HA 306-318 P2,10 VA→SG peptide, fluorescein-labeled | 11.7

Source: paper PMC2580030
